Patent publication US20240285784A1, “PEPTIDIC CONJUGATES OF SN38 USEFUL IN THE TREATMENT OF CANCER” (FUNDACIÓ INSTITUT DE RECERCA BIOMÈDICA (IRB BARCELONA), priority 2020, published 2024)
*1 amine or outer side, *2 acyl side, *3 side chain or, on linkers, in order; H or OH if unused. Where a SMILES comes first, the peptide text is derived from it. Bridges are numbered along the chain shown (N, C = ends). [ ]: non-standard residue; d: D form. The star is where a group is joined. ξ: configuration not given here. X5 = CCc1c2c(nc3ccc(OC(=O)CCCCn4cc(CCCC(=O)NCCCOCCOCCOCCSCN*)nn4)cc13)-c1cc3c(c(=O)n1C2)COC(=O)[C@]3(O)CC; X4 = CC(O)CC(N[*:1])C(=O)[*:2]; Suc = O=C(CCC(=O)[*:2])[*:1]; ξE = NC(CCC(=O)O)C(=O)O; ξD = NC(CC(=O)O)C(=O)O; ξK = NCCCCC(N)C(=O)O; ξT = CC(O)C(N)C(=O)O; ξDap = NCC(N)C(=O)O; ξP = O=C(O)C1CCCN1; ξA = CC(N)C(=O)O

Experiments:
[1] = Evaluation of solubility in water; assay type: physicochemical; settings: at 1 mg/mL
Protocol: 25 mg of SN38-linker A-MiniAp4 were dissolved in H2O, showing a completely transparent solution. This means that SN38-linker A-MiniAp4 has a solubility in water higher than 5 mg/mL, more than 400-fold the solubility in water described for SN38 (Mol. Pharmaceutics, 2016, 13, 379-390).

[2] = test system: patient-derived xenograft of neuroblastoma HSJD-NB-013; settings: 6 doses of 100 mg/kg intravenous at days 1, 2, 3, 4, 5 and 8; one mouse, two tumors; until day 44

In the case of CCc1c2c(nc3ccc(OC(=O)CCCCn4cc(CCCC(=O)NCCCOCCOCCOCCSCNC(=O)CCC(=O)NC5CNC(=O)CC(C(N)=O)NC(=O)C(CC(C)O)NC(=O)C(C)NC(=O)C(C(C)O)NC(=O)C(CCC(=O)O)NC(=O)C6CCCN6C(=O)C(C)NC(=O)C(CCCCN)NC5=O)nn4)cc13)-c1cc3c(c(=O)n1C2)COC(=O)[C@]3(O)CC (some centres unmarked) [G2B-003 (Ic)] ({X5-Suc}-[ξDap][ξK][ξA][ξP][ξE][ξT][ξA][X4][ξD]-NH2; lactam 1-9), the solubility in water [1] was “good solubility” and the “antitumor response (tumor volume)” value [2] was “measurable and long lasting antitumor response”.
